Laboratory results reported in patent US20250027068.
Changes are numbered by the printed parent chain.

Target: pooled human IgG

B1: PRT-552 (protein)
chain: MANQEIRYSEETPKTITSVWTKGVTPPTDFIQNEDVLHAPYIANQGWYDITKTFNGKDDLLCGAATAGNMLHWWFDQNKEEIENYLKKHPEKQKINFNGEQMFDVKEAIDTKDSQTDSALFEYFKDKAFPYLSTKHLGVFPDHVIDMFINGYRLSLTNHGPTPVKRGTKDPRGGIFDAVFTRGDQSKLLTARHDFKEKTLNEISDLIKQELTEGKALGLSHTYANVRINHVINLWGADFNSEGNLEAIYVTDSDSNASIGMKKYYVGVNAAGKVAISAKEIEGDNIGAQVLGLFTLSTGQDIWNQTNLEHHHHHH
- Enzyme Activity Endpoint Assay: Fab′2: 439 ng/µL
- Enzyme Activity Endpoint Assay: Fc: 294 ng/µL
- Enzyme Activity Endpoint Assay: IgG: 45 ng/µL
- Enzyme Activity Endpoint Assay: scIgG: 264 ng/µL

B2: PRT-597 (protein)
chain: B1 chain with K14S, E81Q, A191S, S241A, E242N, A270S
- Enzyme Activity Endpoint Assay: Fab′2: 603 ng/µL
- Enzyme Activity Endpoint Assay: Fc: 315 ng/µL
- Enzyme Activity Endpoint Assay: IgG: 0 ng/µL
- Enzyme Activity Endpoint Assay: scIgG: 0 ng/µL

B3: PRT-558 (protein)
chain: B1 chain with K14S, V19I, D29Q, E80T, K87T, E122S, S186T, N304Q
- Enzyme Activity Endpoint Assay: Fab′2: 700 ng/µL
- Enzyme Activity Endpoint Assay: Fc: 281 ng/µL
- Enzyme Activity Endpoint Assay: IgG: 0 ng/µL
- Enzyme Activity Endpoint Assay: scIgG: 0 ng/µL

B4: PRT-1 (protein)
chain: MANQEIRYSEVTPYHVTSVWTKGVTPPANFTQGEDVFHAPYVANQGWYDITKTFNGKDDLLCGAATAGNMLHWWFDQNKDQIKRYLEEHPEKQKINFNGEQMFDVKEAIDTKNHQLDSKLFEYFKEKAFPYLSTKHLGVFPDHVIDMFINGYRLSLTNHGPTPVKEGSKDPRGGIFDAVFTRGDQSKLLTSRHDFKEKNLKEISDLIKKELTEGKALGLSHTYANVRINHVINLWGADFDSNGNLKAIYVTDSDSNASIGMKKYFVGVNSAGKVAISAKEIKEDNIGAQVLGLFTLSTGQDSWNQTN
- Enzyme Activity Endpoint Assay: Fab′2: 44 ng/µL
- Enzyme Activity Endpoint Assay: Fc: 100 ng/µL
- Enzyme Activity Endpoint Assay: IgG: 23 ng/µL
- Enzyme Activity Endpoint Assay: scIgG: 21 ng/µL

B5: PRT-37 (protein)
chain: B4 chain with N199T
- Enzyme Activity Endpoint Assay: Fab′2: 4 ng/µL
- Enzyme Activity Endpoint Assay: Fc: 79 ng/µL
- Enzyme Activity Endpoint Assay: IgG: 23 ng/µL
- Enzyme Activity Endpoint Assay: scIgG: 69 ng/µL

B6: PRT-35 (protein)
chain: B4 chain with N113D
- Enzyme Activity Endpoint Assay: Fab′2: 37 ng/µL
- Enzyme Activity Endpoint Assay: Fc: 104 ng/µL
- Enzyme Activity Endpoint Assay: IgG: 9 ng/µL
- Enzyme Activity Endpoint Assay: scIgG: 14 ng/µL

B7: PRT-31 (protein)
chain: B4 chain with K83E
- Enzyme Activity Endpoint Assay: Fab′2: 46 ng/µL
- Enzyme Activity Endpoint Assay: Fc: 126 ng/µL
- Enzyme Activity Endpoint Assay: IgG: 13 ng/µL
- Enzyme Activity Endpoint Assay: scIgG: 15 ng/µL

B8: PRT-34 (protein)
chain: B4 chain with H114S
- Enzyme Activity Endpoint Assay: Fab′2: 37 ng/µL
- Enzyme Activity Endpoint Assay: Fc: 95 ng/µL
- Enzyme Activity Endpoint Assay: IgG: 10 ng/µL
- Enzyme Activity Endpoint Assay: scIgG: 14 ng/µL

B9: PRT-36 (protein)
chain: B4 chain with L116T
- Enzyme Activity Endpoint Assay: Fab′2: 48 ng/µL
- Enzyme Activity Endpoint Assay: Fc: 123 ng/µL
- Enzyme Activity Endpoint Assay: IgG: 15 ng/µL
- Enzyme Activity Endpoint Assay: scIgG: 16 ng/µL

B10: PRT-39 (protein)
chain: B4 chain with K209Q
- Enzyme Activity Endpoint Assay: Fab′2: 39 ng/µL
- Enzyme Activity Endpoint Assay: Fc: 116 ng/µL
- Enzyme Activity Endpoint Assay: IgG: 9 ng/µL
- Enzyme Activity Endpoint Assay: scIgG: 19 ng/µL

B11: PRT-32 (protein)
chain: B4 chain with S302I
- Enzyme Activity Endpoint Assay: Fab′2: 48 ng/µL
- Enzyme Activity Endpoint Assay: Fc: 124 ng/µL
- Enzyme Activity Endpoint Assay: IgG: 14 ng/µL
- Enzyme Activity Endpoint Assay: scIgG: 17 ng/µL

B12: PRT-40 (protein)
chain: B4 chain with I145L
- Enzyme Activity Endpoint Assay: Fab′2: 42 ng/µL
- Enzyme Activity Endpoint Assay: Fc: 108 ng/µL
- Enzyme Activity Endpoint Assay: IgG: 14 ng/µL
- Enzyme Activity Endpoint Assay: scIgG: 13 ng/µL

B13: PRT-33 (protein)
chain: B4 chain with E87K
- Enzyme Activity Endpoint Assay: Fab′2: 26 ng/µL
- Enzyme Activity Endpoint Assay: Fc: 93 ng/µL
- Enzyme Activity Endpoint Assay: IgG: 17 ng/µL
- Enzyme Activity Endpoint Assay: scIgG: 44 ng/µL

B14: PRT-38 (protein)
chain: B4 chain with K246E
- Enzyme Activity Endpoint Assay: Fab′2: 46 ng/µL
- Enzyme Activity Endpoint Assay: Fc: 124 ng/µL
- Enzyme Activity Endpoint Assay: IgG: 14 ng/µL
- Enzyme Activity Endpoint Assay: scIgG: 15 ng/µL

B15: PRT-579 (protein)
chain: MANQEIRYSKATPSHITSVWTKGVTPPENFIYNEDVLHAPYLPNQGWYDITKTFNGKDDLLCGAATAGNMLHWWFDQNKEQIERYLKEHPEKQKINFNGEQMFDVKEAIDTKDSQTNSKLFEYFKDKAFPYLSTKHLGVFPDHVIDMFINGYRLSLTNHGPTPVKEQNKDPRGGIFDAVFTRGDQSKLLTSRHDFKEKTLNEISQLIKQELTEGKALGLSHTYANVRINHVINLWGADFNAEGNLEAIYVTDSDSNASIGMKKYYVGVNSAGKVAISAKEIEGDNIGAQVLGLFTLSTGQDIWQQTNLEHHHHHH
- Enzyme Activity Endpoint Assay: Fab′2: 816 ng/µL
- Enzyme Activity Endpoint Assay: Fc: 450 ng/µL
- Enzyme Activity Endpoint Assay: IgG: 0 ng/µL
- Enzyme Activity Endpoint Assay: scIgG: 0 ng/µL

B16: PRT-529 (protein)
chain: MANQEIRYSEETPKTITSVWTKGVTPPTDFIKNEDVLHAPYIANQGWYDITKTFNGKDDLLCGAATAGNMLHWWFDQNKEEIENYLKKHPEKQKINFNGEQMFDVKEAIDTKDSQTDSALFEYFKDKAFPNLSTKHLGVMPDLVLDMFINGYYLSLGKHGPTPVKRGTKDPRGGIFDAVFTRGDQTKLLTARHDFKEKTLNEISDLIKQELTEGKALALSHTYANVRINHVINLWGADFNSEGNLEAIYVTDSDSNASIGMKKYYVGVNAAGKVAISAKEIEGDNIGAQVLGLFTLSTGQDIWEQTNLEHHHHHH
- Enzyme Activity Endpoint Assay: Fab′2: 0 ng/µL
- Enzyme Activity Endpoint Assay: Fc: 177 ng/µL
- Enzyme Activity Endpoint Assay: IgG: 508 ng/µL
- Enzyme Activity Endpoint Assay: scIgG: 350 ng/µL

B17: PRT-285 (protein)
chain: MVTSVWTKGVTPPAKFTQGEDVFHAPYDANQGWYDITKTFNGKDDLLCGAATAGNMLHWWFDQNKEKIEAYLKKHPDKQKIMFGDQELLDVRKVINTKGDQTNSELFNYFRDKAFPGLSARRIGVMPDLVLDMFINGYYLNVYKTQTTDVNRTYQEKDRRGGIFDAVFTRGDQSKLLTSRHDFKEKNLKEISDLIKKELTEGKALGLSHTYANVRISHVINLWGADFDSNGNLKAIYVTDSDSNASIGMKKYGVGVNSAGKVAISAKEIKEDNIGAQVLGLFTLSTGQDSWNQTN
- Enzyme Activity Endpoint Assay: Fab′2: 0 ng/µL
- Enzyme Activity Endpoint Assay: Fc: 0 ng/µL
- Enzyme Activity Endpoint Assay: IgG: 1320 ng/µL
- Enzyme Activity Endpoint Assay: scIgG: 0 ng/µL

B18: PRT-601 (protein)
chain: MANQEIRYSEETPSTVTSVWTKGVTPPTDFIQNEDVLHAPYIANQGWYDITKTFNGKDDLLCGAATAGNMLHWWFDQNKEQIKNYLKKHPEKQKINFNGEQMFDVKEAIDTKNHQLDSALFEYFKDKAFPYLSTKHLGVFPDHVIDMFINGYRLSLTNHGPTPVKRGTKDPRGGIFDAVFTRGDQSKLLTSRHDFKEKNLNEISDLIKKELTEGKALGLSHTYANVRINHVINLWGADFNANGNLEAIYVTDSDSNASIGMKKYFVGVNSAGKVAISAKEIKGDNIGAQVLGLFTLSTGQDSWNQTNLEHHHHHH
- Enzyme Activity Endpoint Assay: Fab′2: 720 ng/µL
- Enzyme Activity Endpoint Assay: Fc: 529 ng/µL
- Enzyme Activity Endpoint Assay: IgG: 0 ng/µL
- Enzyme Activity Endpoint Assay: scIgG: 0 ng/µL

B19: PRT-277 (protein)
chain: MVTSVWTKGVTPPTDFIYGEDVLHAPYKAGQGWYDITKLFNGKDNLLCGAATAGNMLHWWFDQNKEQIENYLKKHPEKQKIIFNNQELFDLKAAIDTKDSQLDSKLFEYFLEKAFPNLSTKHLGVFPDHVIDMFINGYRLSLLNHGPTPVKRGSKDKRGGIFDAVFTRGVQSKLLTNRHDLKNKTLKEISDLIKQELTEGKALGISHTYANGRINHVINLWGADFDAEGNLEAIAVTDSDTNASIGMKKYFVGVNSSGKVAISAKEIEEDNIGAQVLGLFTLSTGQDIWNQTN
- Enzyme Activity Endpoint Assay: Fab′2: 19 ng/µL
- Enzyme Activity Endpoint Assay: Fc: 160 ng/µL
- Enzyme Activity Endpoint Assay: IgG: 401 ng/µL
- Enzyme Activity Endpoint Assay: scIgG: 705 ng/µL

B20: PRT-539 (protein)
chain: MANQEIRYSKNENPNVTIKWVHGIGEPTQAEKEKIEFYWYETNTTKFFNNRKVTHLGDSNQCWAKTASNMLHWWFEQNKENINKYIEKKNITGKINFNGEQMFDVKEGIDDNQEKEKSYIANTFRTKKAHNLSTKHKGDYIISGLAWYLYGLNNFKNAHGPTPVKKKPKFYGPALFKDVFNRGDGNTPIKEETDFKEYTKKEFEDILKEALDSKKAIGINIYGSNVGYGHAITLWGAAFDEDNNIIAIYVVDNNFKFENRIFPYGIWYEKEGRPYLFNYEINSFVKNRYVGEITTLDKGEAQWQETNLEHHHHHH
- Enzyme Activity Endpoint Assay: Fab′2: 0 ng/µL
- Enzyme Activity Endpoint Assay: Fc: 0 ng/µL
- Enzyme Activity Endpoint Assay: IgG: 1400 ng/µL
- Enzyme Activity Endpoint Assay: scIgG: 0 ng/µL

B21: PRT-589 (protein)
chain: MRNQTTTYSEVTPSHITSVWTKGVTPPEQFIQGEDVFHAPYIANQGWYDITKTFNGKDDLLCGAATAGNMLHWWFDQNKEQIENYLKKHPEKQKINFNNEEMFDVREAINTKDSQTDSALFSYFKDKAFPYLSAKHLGVFPDHVIDMFINGYRLSLTNHDKTDVNRGTKDPRGGIFDAVFTRGDQSKLLTARHDFKNKTLKEISDLIKQELTEGKALGLSHTYANVRINHVINLWGADFDAEGNLEAIYVTDSDSNASIGMKKYYVGVNSAGKVAISAKKIEGDNIGAQVLGLFTLSTGQDIWQQTNLEHHHHHH
- Enzyme Activity Endpoint Assay: Fab′2: 863 ng/µL
- Enzyme Activity Endpoint Assay: Fc: 352 ng/µL
- Enzyme Activity Endpoint Assay: IgG: 0 ng/µL
- Enzyme Activity Endpoint Assay: scIgG: 0 ng/µL
